According to PMC5428781, “Novel insights into the interaction of UBA5 with UFM1 via a UFM1-interacting sequence” (Scientific Reports, 2017):
Ends that are not written are not given here. fluorescein = fluorescein label on the N-terminus

Target: T1, ubiquitin-fold modifier 1 (UFM1) (human, UniProt P61960 1-83)
T1 construct: ubiquitin-fold modifier 1 (UFM1), human; the form that ends at Gly 83 (the residues missing in the models are counted up to Gly 83); pET15b, N-terminal His6 followed by a TEV site; purified by the protocol of the UBA5 constructs, which removes the tag; In solution a monomer and a fraction of dimer; also called UFM1 WT; UFM1 alone; source: E. coli, purified (His-Trap, TEV cleavage, second …)
T1 sequence (P61960 1-83): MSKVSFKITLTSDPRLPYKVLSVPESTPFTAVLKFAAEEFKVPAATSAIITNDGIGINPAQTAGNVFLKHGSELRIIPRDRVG
Assay: fluorescence polarisation; UFM1 at various concentrations with 120 nM N-terminal fluorescein-labeled UIS peptide; 50 mM Hepes pH 7.5, 150 mM NaCl, 5% glycerol, 0.2 mg/ml BSA; room temperature; triplicate; one site specific binding fit
Settings: both partners purified

Kd: 8.47 µM
Binder: fluorescein-IIHEDNEWGIELV (peptide, UniProt Q9GZZ9 334-346, looked up, source: synthetic peptide) [fluorescein-labeled UIS peptide (amino acids 334–346 of UBA5)]
